B1: CMK1: yeast calcium/calmodulin-dependent serine/threonine protein kinase, GST-HisX6 fusion (protein)
chain: MDDKVSEKESSPKQTEEDSEGKMAHVQPASYVNKKKYVFGKTLGAGTFGVVRQAKNTETGEDVAVKILIKKALKGNKVQLEALYDELDILQRLHHPNIVAFKDWFESKDKFYIITQLAKGGELFDRILKKGKFTEEDAVRILVEILSAVKYMHSQNIVHRDLKPENLLYIDKSDESPLVVADFGIAKRLKSDEELLYKPAGSLGYVAPEVLTQDGHGKPCDIWSIGVITYTLLCGYSAFRAERVQDFLDECTTGEYPVKFHRPYWDSVSNKAKQFILKALNLDPSKRPTAAELLEDPWIICTELKTHNLLPGLKEGLDARQKFRNSVERVRLNMKIQKLRDLYLEQTESDSDFDEGSQANGSVPPLKATDTSQLSKKLSEEEQSKLKSELTSKAFAQLVNTVLAEKEKFLNINRVCSSDSDLPGSDIKSLDEAKEKPEGKDTKTEE
modifications: left off: a dimerising Fc or GST
notes: yeast calcium/calmodulin-dependent serine/threonine protein kinase, GST-HisX6 fusion
B2: MY04: yeast class V myosin heavy chain, GST-HisX6 fusion (protein, UniProt P32492 1-1471, looked up)
Myosin-4: MSFEVGTKCWYPHKEQGWIGGEVTKNDFFEGTFHLELKLEDGETVSIETNSFENDDDHPTLPVLRNPPILESTDDLTTLSYLNEPAVLHAIKKRYMNGQIYTYSGIVLIAANPFDKVDHLYSREMIQNYSSKRKDELEPHLFAIAEEAYRFMVHEKANQTVVVSGESGAGKTVSAKYIMRYFASVQESNNREGEVEMSQIESQILATNPIMEAFGNAKTTRNDNSSRFGKYLQILFDENTTIRGSKIRTYLLEKSRLVYQPETERNYHIFYQILEGLPEPVKQELHLSSPKDYHYTNQGGQPNIAGIDEAREYKITTDALSLVGINHETQLGIFKILAGLLHIGNIEMKMTRNDASLSSEEQNLQIACELLGIDPFNFAKWIVKKQIVTRSEKIVTNLNYNQALIARDSVAKFIYSTLFDWLVDNINKTLYDPELDQQDHVFSFIGILDIYGFEHFEKNSFEQFCINYANEKLQQEFNQHVFKLEQEEYVKEEIEWSFIEFSDNQPCIDLIENKLGILSLLDEESRLPSGSDESWASKLYSAFNKPPSNEVFSKPRFGQTKFIVSHYAVDVEYEVEGFIEKNRDSVSLGHLDVFKATTNPIFKQILDNRELRSDDAPEEQNTEKKIMIPARLSQKKPTLGSMFKKSLGELMAIINSTNVHYIRCIKPNSEKKPWEFDNLMVLSQLRACGVLETIRISCAGFPSRWTFDEFVQRYFLLTDYSLWSGILYNPDLPKEAIVNFCQSILDATISDSAKYQIGNTKIFFKAGMLAFLEKLRTNKMNEICIIIQKKIRARYYRLQYLQTMESIKKCQSQIRSLLVRTRVDHELKTRAAILLQTNIRALWKREYYRAAIGQIIKLQCTCKRKLILDSVNRKFMLMAAVIIQSYIRSYGHKTDYRTLKRSSILVQSAMRMQLARRRYIVLQKEVEERNIRASYGIGLLEEAIEFKNSFILNLEMLNDSYTRLTQLLQGDLSNIPSKQRQEYETIVNGYNDKISKLKTLQVEIMNTLNKKNALKERKKKQSSLIQSHMQSLAAIKGNKPSRLSDEVKSMKQELAFIENVIAQDFTTTYSANKNDKVKGLGIAGQQVKPKLVNVIRRESGNPDLLELLMDLNCYTLEVTEGYLKKVNVTEVNGDNVLGPIHVITTVVSSLVRNGLLIQSSKFISKVLLTVESIVMSLPKDETMLGGIFWLSNLSRLPAFAANQKTLYEANGGDEKDKLTLIYLNDLENETLKVFDKIYSTWLVKFMKHASAHIEIFDMVLNEKLFKNSGDEKFAKLFTFLNEFDAVLCKFQVVDSMHTKIFNDTLKYLNVMLFNDLITKCPALNWKYGYEVDRNIERLVSWFEPRIEDVRPNLIQIIQAVKILQLKISNLNEFKLLFDFWYALNPAQIQAILLKYKPANKGEAGVPNEILNYLANVIKRENLSLPGKMEIMLSAQFDSAKNHLRYDTSAITQNSNTEGLATVSKIIKLDRK
modifications: GST-HisX6 tag
notes: yeast class V myosin heavy chain, GST-HisX6 fusion

Biological target: T1, calmodulin (Homo sapiens, UniProt P0DP23)
T1 construct: purchased CalBiochem, USA
Test: Yeast proteome chip probed with biotinylated calmodulin
Assay type: binding
Conditions: biotinylated calmodulin in the presence of calcium
Excerpt: To test for protein-protein interactions, the yeast proteome was probed with calmodulin (11). Calmodulin is a highly conserved calcium-binding protein involved in many calcium-regulated cellular processes and has many known physical partners (Hook et al., 2001, Annu. Rev. Pharmacol. Toxicol. 41:471). The calmodulin probe was biotinylated, and bound probe was detected using Cy3-labeled streptavidin. As a control, the yeast proteome was probed with Cy3-labeled streptavidin alone.
Generally, protein-protein interactions can be assayed as follows. Blocked proteome chips are washed three to five times in PBS buffer, and the extra liquid on the glass surface is removed by tapping the slides vertically on a KIMWIPE™. 200 ∞l of biotinylated protein probe is added to the proteome chip and immediately covered by a hydrophobic plastic cover slip (GRACE BIO-LABS™, USA). After trapped air bubbles are removed, the chip is incubated in a humidity chamber at room temperature (RT) for one hour. To remove the cover slip, the chip is immersed into large volume of PBS buffer (>50 ml), and the slip should float away. The chip is then moved to a second PBS bath (>50 ml) and washed 3×5 min with shaking at RT. After removing extra liquid on the surface of the chip, at least 150 μl of Cy3- or Cy5-conjugated streptavidin (PIERCE™, USA; 1:2000 to 1:4000 dilution) is added to the surface and covered by a hydrophobic plastic cover slip (GRACE BIO-LABS™, USA). The chip is incubated for greater than 30 min in the dark at RT. The chip is then washed as described above. To completely remove the liquid on the chip, the chip is spun to dryness at 1500-2000 rpm for 5-10 min at RT.
• 1. S. Fields, Y. Kohara, D. J. Lockhart, Proc. Natl. Acad. Sci. 96, 8825 (1999); A. Goffeau et al., Science 274, 563 (1996). • 2 P. Ross-Macdonald et al., Nature 402, 413 (1999); J. L., DeRisi, V. R. Iyer, P. O. Brown, Science 278, 680 (1997); E. A. Winzeler et al., Science 285, 901 (1999). P. Uetz et al., Nature 403, 623 (2000); T. Ito et al., Proc. Natl. Acad. Sci. USA. 97, 1143 (2000) • 3 H. Zhu, M. Snyder, Curr. Opin. Chem. Biol. 5, 40 (2001). • 4 M. R. Martzen et al., Science 286, 1153 (1999). • 5 H. Zhu et al., Nat. Genet. 26, 283 (2000). • 6 G. MacBeath, S. L. Schreiber, Science 289, 1760 (2000). • 7 A. Caveman, J. Cell Sci. 113, 3543 (2000). • 8 P. Arenkov et al., Anal. Biochem 278, 123 (2000). • 9 D. A. Mitchell, T. K. Marshall, R. J. Deschenes, Yeast 9, 715 (1993). The expression vector pEGH was created by inserting an RGS-HisX6 epitope tag between the GST gene and the polycloning site of pEG(KG). The yeast ORFs were cloned using the strategy described previously (5), except every step was done in a 96-well format. Plasmid DNAs confirmed by DNA sequencing were reintroduced into both yeast (Y258) and E. coli (DH5a). […] 0.1 mM calcium was present in buffers in all subsequent steps. The chip was washed three times with PBS at RT. Cy3-conjugated streptavidin (Jackson IR, USA) (1:5000 dilution) was added to the chip and incubated for 30 min at RT. After extensive washing, the chip was spun dry and scanned using a microarray scanner; the data was subsequently acquired with the GENEPIX™ array densitometry software (Axon, USA). • 12 S. S. Hook, A. R. Means, Annu. Rev. […]

Molecule	calmodulin binding
B1	identified
B2	identified

Reference: patent US20050182242A1, “Global analysis of protein activities using proteome chips” (priority 2001, published 2005)
